Consider one molecule from publication doi:10.1101/2025.04.24.648904 (bioRxiv, 2025).

The term Kd denotes a measure of binding affinity in units of concentration. High values mean weaker binding, low ones tighter binding.

The assay addresses Hsp90 (Hsp82), full length (S. cerevisiae, UniProt P02829 1-709). The assay is described as follows: AUC.

Sequence of Hsp90 (Hsp82), full length (P02829 whole entry): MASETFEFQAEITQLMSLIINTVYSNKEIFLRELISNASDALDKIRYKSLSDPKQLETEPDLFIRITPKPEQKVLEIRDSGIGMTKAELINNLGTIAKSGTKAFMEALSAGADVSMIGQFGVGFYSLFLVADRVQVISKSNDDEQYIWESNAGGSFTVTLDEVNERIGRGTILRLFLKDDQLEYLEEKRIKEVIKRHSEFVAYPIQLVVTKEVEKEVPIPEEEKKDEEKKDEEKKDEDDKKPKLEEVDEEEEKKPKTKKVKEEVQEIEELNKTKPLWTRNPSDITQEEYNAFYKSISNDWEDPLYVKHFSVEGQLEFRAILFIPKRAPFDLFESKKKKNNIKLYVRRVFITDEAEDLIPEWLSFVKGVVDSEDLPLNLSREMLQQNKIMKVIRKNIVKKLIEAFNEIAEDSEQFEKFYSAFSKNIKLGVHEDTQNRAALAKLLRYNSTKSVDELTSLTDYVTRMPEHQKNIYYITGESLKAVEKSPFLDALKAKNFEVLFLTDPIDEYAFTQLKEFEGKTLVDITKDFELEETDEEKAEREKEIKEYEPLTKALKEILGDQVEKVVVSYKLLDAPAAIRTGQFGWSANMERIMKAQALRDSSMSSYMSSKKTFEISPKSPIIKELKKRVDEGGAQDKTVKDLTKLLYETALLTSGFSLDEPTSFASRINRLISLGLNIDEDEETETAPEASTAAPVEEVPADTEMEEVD

B1: Sgt1 (Suppressor of the G2 Allele of Skp1), full length (natural protein, S. cerevisiae, UniProt Q08446 1-395, looked up)
chain: MPVEKDLKTAYKALYDEKEPLKALHLYDEILKGSPTNLTALIFKAACLEKLYFGFSDWHSDATMENAKELLDKALMTAEGRGDRSKIGLVNFRYFVHFFNIKDYELAQSYFKKAKNLGYVDDTLPLWEDRLETKLNKKNKKQKDSTNKHTIKPVESIENRGDNNSSHSPISPLKIETAPQESPKFKIDWYQSSTSVTISLFTVNLPESKEQVNIYISPNDRRTLSISYQVPKSGSEFQYNAKLSHEVDPKAVSLKIFPKKLEITLSKIDSTQWKKLEEDILTESSRLSDEGKNSDSATRLLSAETASKERLSYPSSSKKKIDWSKLDIDEEADEEAGSADSFFQKLYAGADPDTKRAMMKSFIESNGTALSTDWEDVSKGTVKTSPPEGMEPKHW
modifications: Atto488 (maleimide) label where it is the labeled species in aUC
For B1, binding was put at a Kd of 510 nM.
